{"source": "paper PMC8699594", "about": "“Improving the Substrate Affinity and Catalytic Efficiency of β-Glucosidase Bgl3A from Talaromyces leycettanus JCM12802 by Rational Design” (Biomolecules, 2021)", "key": {"Bgl3A [1]": {"biological_target": "T1, Bgl3A (Evansstolkia leycettana, UniProt A0A1B0VFN7)", "T1 construct": "no tag mentioned", "T1 sequence (A0A1B0VFN7 entry or part of it)": "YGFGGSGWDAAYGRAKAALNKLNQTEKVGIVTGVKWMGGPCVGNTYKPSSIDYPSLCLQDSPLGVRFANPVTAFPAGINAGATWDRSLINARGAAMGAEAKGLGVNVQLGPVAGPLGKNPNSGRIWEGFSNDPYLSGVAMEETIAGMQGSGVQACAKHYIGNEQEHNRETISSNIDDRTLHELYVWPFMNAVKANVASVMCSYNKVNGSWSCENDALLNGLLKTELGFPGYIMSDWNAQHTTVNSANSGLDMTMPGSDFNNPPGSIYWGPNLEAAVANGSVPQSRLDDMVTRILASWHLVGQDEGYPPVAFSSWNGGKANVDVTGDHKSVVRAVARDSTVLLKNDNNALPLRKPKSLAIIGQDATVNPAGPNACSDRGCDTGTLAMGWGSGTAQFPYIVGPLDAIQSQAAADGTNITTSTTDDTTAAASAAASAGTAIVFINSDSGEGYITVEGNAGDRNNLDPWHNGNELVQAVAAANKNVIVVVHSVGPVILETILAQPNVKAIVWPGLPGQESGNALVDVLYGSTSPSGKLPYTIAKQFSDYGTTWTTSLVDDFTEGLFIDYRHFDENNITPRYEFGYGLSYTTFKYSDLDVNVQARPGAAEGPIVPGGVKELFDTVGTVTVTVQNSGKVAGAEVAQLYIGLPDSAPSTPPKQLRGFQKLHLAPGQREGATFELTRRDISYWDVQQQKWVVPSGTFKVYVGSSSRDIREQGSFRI", "experiment": "glucose release (GOD-POD), Michaelis-Menten fit", "type": "biochemical", "conditions": "read-out: Cellobiose / Km; 75 °C, pH 4.5, Na2HPO4-citric acid buffer"}, "Bgl3A [2]": {"biological_target": "T1, Bgl3A", "experiment": "p-nitrophenol release at […] nm, Michaelis-Menten fit", "type": "biochemical", "conditions": "read-out: pNPG / Km; 75 °C, pH 4.5, Na2HPO4-citric acid buffer"}, "purified protein": {"substrate": "O=[N+]([O-])c1ccc(O[C@@H]2O[C@H](CO)[C@@H](O)[C@H](O)[C@H]2O)cc1", "experiment": "purified protein", "conditions": "75 °C, pH 4.5, Na2HPO4-citric acid buffer"}}, "data": [{"molecule": "OC[C@H]1O[C@@H](O[C@H]2[C@H](O)[C@@H](O)C(O)O[C@@H]2CO)[C@H](O)[C@@H](O)[C@@H]1O", "note": "(some centres unmarked) [cellobiose]", "values": [{"measurement": "Km", "setting": "Bgl3A [1]", "value": "10.4 ± 0.4", "unit": "mM"}]}, {"molecule": "O=[N+]([O-])c1ccc(O[C@@H]2O[C@H](CO)[C@@H](O)[C@H](O)[C@H]2O)cc1", "note": "[4-nitrophenyl β-D-glucopyranoside]", "values": [{"measurement": "Km", "setting": "Bgl3A [2]", "value": "180 ± 30", "unit": "µM"}]}, {"molecule": "Bgl3A (Evansstolkia leycettana; F86Y) (protein) YGFGGSGWDAAYGRAKAALNKLNQTEKVGIVTGVKWMGGPCVGNTYKPSSIDYPSLCLQDSPLGVRYANPVTAFPAGINAGATWDRSLINARGAAMGAEAKGLGVNVQLGPVAGPLGKNPNSGRIWEGFSNDPYLSGVAMEETIAGMQGSGVQACAKHYIGNEQEHNRETISSNIDDRTLHELYVWPFMNAVKANVASVMCSYNKVNGSWSCENDALLNGLLKTELGFPGYIMSDWNAQHTTVNSANSGLDMTMPGSDFNNPPGSIYWGPNLEAAVANGSVPQSRLDDMVTRILASWHLVGQDEGYPPVAFSSWNGGKANVDVTGDHKSVVRAVARDSTVLLKNDNNALPLRKPKSLAIIGQDATVNPAGPNACSDRGCDTGTLAMGWGSGTAQFPYIVGPLDAIQSQAAADGTNITTSTTDDTTAAASAAASAGTAIVFINSDSGEGYITVEGNAGDRNNLDPWHNGNELVQAVAAANKNVIVVVHSVGPVILETILAQPNVKAIVWPGLPGQESGNALVDVLYGSTSPSGKLPYTIAKQFSDYGTTWTTSLVDDFTEGLFIDYRHFDENNITPRYEFGYGLSYTTFKYSDLDVNVQARPGAAEGPIVPGGVKELFDTVGTVTVTVQNSGKVAGAEVAQLYIGLPDSAPSTPPKQLRGFQKLHLAPGQREGATFELTRRDISYWDVQQQKWVVPSGTFKVYVGSSSRDIREQGSFRI", "values": [{"measurement": "Km", "setting": "purified protein", "value": "0.24 ± 0.02", "unit": "mM"}, {"measurement": "kcat", "setting": "purified protein", "value": 1770, "unit": "s⁻¹"}, {"measurement": "kcat/Km", "setting": "purified protein", "value": "7.45e+06", "unit": "M⁻¹ s⁻¹"}]}, {"molecule": "Bgl3A (Evansstolkia leycettana; E188Q) (protein) YGFGGSGWDAAYGRAKAALNKLNQTEKVGIVTGVKWMGGPCVGNTYKPSSIDYPSLCLQDSPLGVRFANPVTAFPAGINAGATWDRSLINARGAAMGAEAKGLGVNVQLGPVAGPLGKNPNSGRIWEGFSNDPYLSGVAMEETIAGMQGSGVQACAKHYIGNEQEHNRQTISSNIDDRTLHELYVWPFMNAVKANVASVMCSYNKVNGSWSCENDALLNGLLKTELGFPGYIMSDWNAQHTTVNSANSGLDMTMPGSDFNNPPGSIYWGPNLEAAVANGSVPQSRLDDMVTRILASWHLVGQDEGYPPVAFSSWNGGKANVDVTGDHKSVVRAVARDSTVLLKNDNNALPLRKPKSLAIIGQDATVNPAGPNACSDRGCDTGTLAMGWGSGTAQFPYIVGPLDAIQSQAAADGTNITTSTTDDTTAAASAAASAGTAIVFINSDSGEGYITVEGNAGDRNNLDPWHNGNELVQAVAAANKNVIVVVHSVGPVILETILAQPNVKAIVWPGLPGQESGNALVDVLYGSTSPSGKLPYTIAKQFSDYGTTWTTSLVDDFTEGLFIDYRHFDENNITPRYEFGYGLSYTTFKYSDLDVNVQARPGAAEGPIVPGGVKELFDTVGTVTVTVQNSGKVAGAEVAQLYIGLPDSAPSTPPKQLRGFQKLHLAPGQREGATFELTRRDISYWDVQQQKWVVPSGTFKVYVGSSSRDIREQGSFRI", "values": [{"measurement": "Km", "setting": "purified protein", "value": "0.21 ± 0.03", "unit": "mM"}, {"measurement": "kcat", "setting": "purified protein", "value": 1740, "unit": "s⁻¹"}, {"measurement": "kcat/Km", "setting": "purified protein", "value": "8.39e+06", "unit": "M⁻¹ s⁻¹"}]}, {"molecule": "Bgl3A (Evansstolkia leycettana; M56E) (protein) YGFGGSGWDAAYGRAKAALNKLNQTEKVGIVTGVKWEGGPCVGNTYKPSSIDYPSLCLQDSPLGVRFANPVTAFPAGINAGATWDRSLINARGAAMGAEAKGLGVNVQLGPVAGPLGKNPNSGRIWEGFSNDPYLSGVAMEETIAGMQGSGVQACAKHYIGNEQEHNRETISSNIDDRTLHELYVWPFMNAVKANVASVMCSYNKVNGSWSCENDALLNGLLKTELGFPGYIMSDWNAQHTTVNSANSGLDMTMPGSDFNNPPGSIYWGPNLEAAVANGSVPQSRLDDMVTRILASWHLVGQDEGYPPVAFSSWNGGKANVDVTGDHKSVVRAVARDSTVLLKNDNNALPLRKPKSLAIIGQDATVNPAGPNACSDRGCDTGTLAMGWGSGTAQFPYIVGPLDAIQSQAAADGTNITTSTTDDTTAAASAAASAGTAIVFINSDSGEGYITVEGNAGDRNNLDPWHNGNELVQAVAAANKNVIVVVHSVGPVILETILAQPNVKAIVWPGLPGQESGNALVDVLYGSTSPSGKLPYTIAKQFSDYGTTWTTSLVDDFTEGLFIDYRHFDENNITPRYEFGYGLSYTTFKYSDLDVNVQARPGAAEGPIVPGGVKELFDTVGTVTVTVQNSGKVAGAEVAQLYIGLPDSAPSTPPKQLRGFQKLHLAPGQREGATFELTRRDISYWDVQQQKWVVPSGTFKVYVGSSSRDIREQGSFRI", "values": [{"measurement": "Km", "setting": "purified protein", "value": "0.25 ± 0.03", "unit": "mM"}, {"measurement": "kcat", "setting": "purified protein", "value": 1800, "unit": "s⁻¹"}, {"measurement": "kcat/Km", "setting": "purified protein", "value": "7.09e+06", "unit": "M⁻¹ s⁻¹"}]}, {"molecule": "Bgl3A (Evansstolkia leycettana; M56N) (protein) YGFGGSGWDAAYGRAKAALNKLNQTEKVGIVTGVKWNGGPCVGNTYKPSSIDYPSLCLQDSPLGVRFANPVTAFPAGINAGATWDRSLINARGAAMGAEAKGLGVNVQLGPVAGPLGKNPNSGRIWEGFSNDPYLSGVAMEETIAGMQGSGVQACAKHYIGNEQEHNRETISSNIDDRTLHELYVWPFMNAVKANVASVMCSYNKVNGSWSCENDALLNGLLKTELGFPGYIMSDWNAQHTTVNSANSGLDMTMPGSDFNNPPGSIYWGPNLEAAVANGSVPQSRLDDMVTRILASWHLVGQDEGYPPVAFSSWNGGKANVDVTGDHKSVVRAVARDSTVLLKNDNNALPLRKPKSLAIIGQDATVNPAGPNACSDRGCDTGTLAMGWGSGTAQFPYIVGPLDAIQSQAAADGTNITTSTTDDTTAAASAAASAGTAIVFINSDSGEGYITVEGNAGDRNNLDPWHNGNELVQAVAAANKNVIVVVHSVGPVILETILAQPNVKAIVWPGLPGQESGNALVDVLYGSTSPSGKLPYTIAKQFSDYGTTWTTSLVDDFTEGLFIDYRHFDENNITPRYEFGYGLSYTTFKYSDLDVNVQARPGAAEGPIVPGGVKELFDTVGTVTVTVQNSGKVAGAEVAQLYIGLPDSAPSTPPKQLRGFQKLHLAPGQREGATFELTRRDISYWDVQQQKWVVPSGTFKVYVGSSSRDIREQGSFRI", "values": [{"measurement": "Km", "setting": "purified protein", "value": "0.59 ± 0.07", "unit": "mM"}, {"measurement": "kcat", "setting": "purified protein", "value": 1070, "unit": "s⁻¹"}, {"measurement": "kcat/Km", "setting": "purified protein", "value": "1.79e+06", "unit": "M⁻¹ s⁻¹"}]}]}
